The values that follow come from patent EP1899377B1.

Usually Kd stands for the concentration at which binding is half-saturated. For orientation: koff means the first-order rate constant of dissociation. As a reminder, the kon is a measure of how fast the partners come together. Read a low kon as slower complex formation.

The experiment has as its target GST-human NOGO-A56 (human) (UniProt Q9NQC3). Description: SPR (Biacore T100), reverse format: antibody captured on Protein A, human NOGO 5+6 GST as analyte, 1:1 model; mean (SD) of 5 or 6 runs. Background: Surface plasmon resonance follows binding to a sensor surface in real time, without labels.

GST-human NOGO-A56 (human), sequence (Q9NQC3 586-785, form in doubt): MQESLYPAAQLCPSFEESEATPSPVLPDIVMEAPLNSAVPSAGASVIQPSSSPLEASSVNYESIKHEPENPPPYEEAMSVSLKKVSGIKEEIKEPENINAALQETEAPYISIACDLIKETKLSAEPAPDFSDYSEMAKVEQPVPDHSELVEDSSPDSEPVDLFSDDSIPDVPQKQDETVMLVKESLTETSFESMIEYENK

The substance 11C7 (chimeric version) (antibody) came in with a Kd of 0.42 nM, a koff of 0.000117 s⁻¹ and a kon of 285000 M⁻¹ s⁻¹.
